Results reported in the supplement of paper PMC7877785.
± gives the uncertainty stated by the source.

Assay: self-splicing fitness, log relative to wild type (ln ratio); higher = more splicing; Tetrahymena group I intron in knt gene, E. coli kanamycin selection, DiMSum; sequences stand for … in CUCUCU…GGAGGGAAAAGUUAUCAGGCAUGCACCUGGUAGCUAGUCUUUAAACCAAUAGAUUGCAUCGGUUUAAAAGGCAAGACCGUCAAAUUGCGGGAAAGGGGUCAACAGCCGUUCAGUACCAAGUCUCAGGGGAAACUUUGAGAUGGCCUUGCAAAGGGUAUGGUAAUAAGCUGACGGACAUGGUCCUAACCACGCAGCCAAGUCCUAAGUCAACAGAUCUUCUGUUGAUAUGGAUGCAGUUCACAGACUAAAUGUCGGUCGGGGAAGAUGUAUUCUUCUCAUAAGAUAUAGUCGGACCUCUCCUUAAUGGGAGCUAGCGGAUGAAGUGAUGCAACACUGGAGCCGCUGGGAACUAAUUUGUAUGCGAAAGUAUAUUGAUUAGUUUUGGAGUACUCGUGGUCG
Method in brief: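 DiMSum derived fitness as the error-weighted combination of fold changes across replicates, kanamycin versus no kanamycin, normalised to wild type. E. coli BL21(DE3) held the library, which randomised all eight P1ex-region intron nucleotides within the knt kanamycin-resistance gene on pET-22b(+). Six replicate transformations grew overnight at 37°C or 30°C on LB agar with or without 25 μg/mL kanamycin, also containing 100 μg/mL carbenicillin, 50 μM IPTG and 0.2% rhamnose, and pooled colonies were amplicon-sequenced on an Illumina HiSeq 2500.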

| Sequence | self-splicing fitness (ln) (30 °C) | self-splicing fitness (ln) (37 °C) |
| --- | --- | --- |
| UACAAGCAAUAUUACGGCUU | -3.99 ± 0.16 | -2.37 ± 0.15 |
| UACAAGCAAUAUUACGGGAA | -2.41 ± 0.12 | -1.6 ± 0.097 |
| UACAAGCAAUAUUACGGGGA | -1.5 ± 0.12 | -1.09 ± 0.13 |
| UACAAGCAAUAUUACGGUCG | -0.0495 ± 0.068 | -0.0985 ± 0.1 |
| UACAAGCAAUAUUACGGUCU | -1.52 ± 0.052 | -0.534 ± 0.065 |
| UACAAGCAAUAUUACGGUGA | -1.28 ± 0.082 | -0.89 ± 0.1 |
| UACAAGCAAUAUUACGUCCC | -1.25 ± 0.39 | -1.58 ± 0.42 |
| UACAAGCAAUAUUACGUCCG | -0.564 ± 0.068 | -0.0254 ± 0.091 |
| UACAAGCAAUAUUACGUGAC | -3.89 ± 0.18 | -1.85 ± 0.1 |
| UACAAGCAAUAUUACGUUUU | -3.05 ± 0.11 | -2.32 ± 0.12 |
| UACCAGCAAUAUUACGAUCG | -0.0679 ± 0.046 | -0.31 ± 0.06 |
| UACCAGCAAUAUUACGCCUC | -2.32 ± 0.19 | -0.554 ± 0.18 |
| UACCAGCAAUAUUACGCGGU | -4.05 ± 0.17 | -3.47 ± 0.2 |
| UACCAGCAAUAUUACGGAAU | -2.32 ± 0.093 | -1.5 ± 0.1 |
| UACCAGCAAUAUUACGGAGC | -3 ± 0.15 | -3.22 ± 0.27 |
| UACCAGCAAUAUUACGGAUC | -1.46 ± 0.058 | 0.242 ± 0.084 |
| UACCAGCAAUAUUACGGGCC | -2.22 ± 0.1 | -1.2 ± 0.11 |
| UACCAGCAAUAUUACGGGCG | -0.359 ± 0.072 | -0.277 ± 0.079 |
| UACCAGCAAUAUUACGGGUC | -2.46 ± 0.13 | -1.99 ± 0.18 |
| UACCAGCAAUAUUACGGUCG | -0.769 ± 0.064 | 0.485 ± 0.091 |
| UACCAGCAAUAUUACGGUUU | -0.896 ± 0.056 | -0.463 ± 0.065 |
| UACCAGCAAUAUUACGUCAU | -2.21 ± 0.085 | -1.52 ± 0.088 |

| Sequence | self-splicing fitness (ln) (30 °C) | self-splicing fitness (ln) (37 °C) |
| --- | --- | --- |
| UACCAGCAAUAUUACGUGAC | -3.12 ± 0.13 | -1.12 ± 0.14 |
| UACCAGCAAUAUUACGUUAA | -1.36 ± 0.073 | -0.903 ± 0.081 |
| UACCAGCAAUAUUACGUUUC | -4 ± 0.28 | -2.56 ± 0.22 |
| UACGAGCAAUAUUACGACUU | -2.11 ± 0.13 | -0.959 ± 0.15 |
| UACGAGCAAUAUUACGAGCU | -2.28 ± 0.33 | – |
| UACGAGCAAUAUUACGAUCC | -3.23 ± 0.33 | – |
| UACGAGCAAUAUUACGAUCG | -0.594 ± 0.1 | -0.663 ± 0.13 |
| UACGAGCAAUAUUACGCAAG | -2.57 ± 0.15 | -2.03 ± 0.35 |
| UACGAGCAAUAUUACGCACC | -1.91 ± 0.39 | – |
| UACGAGCAAUAUUACGCAGG | -2.88 ± 0.21 | -2.64 ± 0.22 |
| UACGAGCAAUAUUACGCCCC | -2.16 ± 0.44 | – |
| UACGAGCAAUAUUACGCCGG | -2.84 ± 0.29 | 0.206 ± 0.22 |
| UACGAGCAAUAUUACGCGUC | -1.91 ± 0.13 | -2.3 ± 0.19 |
| UACGAGCAAUAUUACGCGUU | -1.67 ± 0.2 | -3.64 ± 0.42 |
| UACGAGCAAUAUUACGCUAA | -2.89 ± 0.42 | -2.85 ± 0.35 |
| UACGAGCAAUAUUACGCUGU | -2.78 ± 0.28 | -1.47 ± 0.39 |
| UACGAGCAAUAUUACGCUUU | -4.61 ± 0.42 | -2.4 ± 0.22 |
| UACGAGCAAUAUUACGGAGU | – | -2.68 ± 0.23 |
| UACGAGCAAUAUUACGGCGG | -1.79 ± 0.13 | -1.08 ± 0.17 |
| UACGAGCAAUAUUACGGGCA | -1.77 ± 0.089 | -0.925 ± 0.087 |
| UACGAGCAAUAUUACGUAGA | -3.47 ± 0.17 | -2.77 ± 0.29 |
